Here are results for five molecules from PMC4017264 (Molecular Cell, 2014).

The chains are these.
B1: HOIP: epitope-tagged HOIP, LUBAC E3 ligase component (protein, UniProt Q96EP0 1-1072, looked up)
E3 ubiquitin-protein ligase …: MPGEEEERAFLVAREELASALRRDSGQAFSLEQLRPLLASSLPLAARYLQLDAARLVRCNAHGEPRNYLNTLSTALNILEKYGRNLLSPQRPRYWRGVKFNNPVFRSTVDAVQGGRDVLRLYGYTEEQPDGLSFPEGQEEPDEHQVATVTLEVLLLRTELSLLLQNTHPRQQALEQLLEDKVEDDMLQLSEFDPLLREIAPGPLTTPSVPGSTPGPCFLCGSAPGTLHCPSCKQALCPACDHLFHGHPSRAHHLRQTLPGVLQGTHLSPSLPASAQPRPQSTSLLALGDSSLSSPNPASAHLPWHCAACAMLNEPWAVLCVACDRPRGCKGLGLGTEGPQGTGGLEPDLARGRWACQSCTFENEAAAVLCSICERPRLAQPPSLVVDSRDAGICLQPLQQGDALLASAQSQVWYCIHCTFCNSSPGWVCVMCNRTSSPIPAQHAPRPYASSLEKGPPKPGPPRRLSAPLPSSCGDPEKQRQDKMREEGLQLVSMIREGEAAGACPEEIFSALQYSGTEVPLQWLRSELPYVLEMVAELAGQQDPGLGAFSCQEARRAWLDRHGNLDEAVEECVRTRRRKVQELQSLGFGPEEGSLQALFQHGGDVSRALTELQRQRLEPFRQRLWDSGPEPTPSWDGPDKQSLVRRLLAVYALPSWGRAELALSLLQETPRNYELGDVVEAVRHSQDRAFLRRLLAQECAVCGWALPHNRMQALTSCECTICPDCFRQHFTIALKEKHITDMVCPACGRPDLTDDTQLLSYFSTLDIQLRESLEPDAYALFHKKLTEGVLMRDPKFLWCAQCSFGFIYEREQLEATCPQCHQTFCVRCKRQWEEQHRGRSCEDFQNWKRMNDPEYQAQGLAMYLQENGIDCPKCKFSYALARGGCMHFHCTQCRHQFCSGCYNAFYAKNKCPEPNCRVKKSLHGHHPRDCLFYLRDWTALRLQKLLQDNNVMFNTEPPAGARAVPGGGCRVIEQKEVPNGLRDEACGKETPAGYAGLCQAHYKEYLVSLINAHSLDPATLYEVEELETATERYLHVRPQPLAGEDPPAYQARLLQKLTEEVPLGQSIPRRRK
modifications: epitope tag
B2: Y82A: V5-tagged HOIP with point mutation Y82A in the PUB binding site (protein)
chain: MPGEEEERAFLVAREELASALRRDSGQAFSLEQLRPLLASSLPLAARYLQLDAARLVRCNAHGEPRNYLNTLSTALNILEKAGRNLLSPQRPRYWRGVKFNNPVFRSTVDAVQGGRDVLRLYGYTEEQPDGLSFPEGQEEPDEHQVATVTLEVLLLRTELSLLLQNTHPRQQALEQLLEDKVEDDMLQLSEFDPLLREIAPGPLTTPSVPGSTPGPCFLCGSAPGTLHCPSCKQALCPACDHLFHGHPSRAHHLRQTLPGVLQGTHLSPSLPASAQPRPQSTSLLALGDSSLSSPNPASAHLPWHCAACAMLNEPWAVLCVACDRPRGCKGLGLGTEGPQGTGGLEPDLARGRWACQSCTFENEAAAVLCSICERPRLAQPPSLVVDSRDAGICLQPLQQGDALLASAQSQVWYCIHCTFCNSSPGWVCVMCNRTSSPIPAQHAPRPYASSLEKGPPKPGPPRRLSAPLPSSCGDPEKQRQDKMREEGLQLVSMIREGEAAGACPEEIFSALQYSGTEVPLQWLRSELPYVLEMVAELAGQQDPGLGAFSCQEARRAWLDRHGNLDEAVEECVRTRRRKVQELQSLGFGPEEGSLQALFQHGGDVSRALTELQRQRLEPFRQRLWDSGPEPTPSWDGPDKQSLVRRLLAVYALPSWGRAELALSLLQETPRNYELGDVVEAVRHSQDRAFLRRLLAQECAVCGWALPHNRMQALTSCECTICPDCFRQHFTIALKEKHITDMVCPACGRPDLTDDTQLLSYFSTLDIQLRESLEPDAYALFHKKLTEGVLMRDPKFLWCAQCSFGFIYEREQLEATCPQCHQTFCVRCKRQWEEQHRGRSCEDFQNWKRMNDPEYQAQGLAMYLQENGIDCPKCKFSYALARGGCMHFHCTQCRHQFCSGCYNAFYAKNKCPEPNCRVKKSLHGHHPRDCLFYLRDWTALRLQKLLQDNNVMFNTEPPAGARAVPGGGCRVIEQKEVPNGLRDEACGKETPAGYAGLCQAHYKEYLVSLINAHSLDPATLYEVEELETATERYLHVRPQPLAGEDPPAYQARLLQKLTEEVPLGQSIPRRRK
modifications: left off: V5, end not stated, kept
B3: aa 1–436: HOIP construct aa 1–436, also including B box and NZF domains (protein, UniProt Q96EP0 1-436, looked up, fragment)
chain: MPGEEEERAFLVAREELASALRRDSGQAFSLEQLRPLLASSLPLAARYLQLDAARLVRCNAHGEPRNYLNTLSTALNILEKYGRNLLSPQRPRYWRGVKFNNPVFRSTVDAVQGGRDVLRLYGYTEEQPDGLSFPEGQEEPDEHQVATVTLEVLLLRTELSLLLQNTHPRQQALEQLLEDKVEDDMLQLSEFDPLLREIAPGPLTTPSVPGSTPGPCFLCGSAPGTLHCPSCKQALCPACDHLFHGHPSRAHHLRQTLPGVLQGTHLSPSLPASAQPRPQSTSLLALGDSSLSSPNPASAHLPWHCAACAMLNEPWAVLCVACDRPRGCKGLGLGTEGPQGTGGLEPDLARGRWACQSCTFENEAAAVLCSICERPRLAQPPSLVVDSRDAGICLQPLQQGDALLASAQSQVWYCIHCTFCNSSPGWVCVMCNRTS
B4: N-terminal 185 amino acids (aa) spanning the PUB domain of HOIP: HOIP truncation (protein, UniProt Q96EP0 1-185, looked up, fragment)
chain: MPGEEEERAFLVAREELASALRRDSGQAFSLEQLRPLLASSLPLAARYLQLDAARLVRCNAHGEPRNYLNTLSTALNILEKYGRNLLSPQRPRYWRGVKFNNPVFRSTVDAVQGGRDVLRLYGYTEEQPDGLSFPEGQEEPDEHQVATVTLEVLLLRTELSLLLQNTHPRQQALEQLLEDKVEDD
B5: HOIL-1: epitope-tagged HOIL-1, LUBAC component (protein)
chain: MDEKTKKAEEMALSLTRAVAGGDEQVAMKCAIWLAEQRVPLSVQLKPEVSPTQDIRLWVSVEDAQMHTVTIWLTVRPDMTVASLKDMVFLDYGFPPVLQQWVIGQRLARDQETLHSHGVRQNGDSAYLYLLSARNTSLNPQELQRERQLRMLEDLGFKDLTLQPRGPLEPGPPKPGVPQEPGRGQPDAVPEPPPVGWQCPGCTFINKPTRPGCEMCCRARPEAYQVPASYQPDEEERARLAGEEEALRQYQQRKQQQQEGNYLQHVQLDQRSLVLNTEPAECPVCYSVLAPGEAVVLRECLHTFCRECLQGTIRNSQEAEVSCPFIDNTYSCSGKLLEREIKALLTPEDYQRFLDLGISIAENRSAFSYHCKTPDCKGWCFFEDDVNEFTCPVCFHVNCLLCKAIHEQMNCKEYQEDLALRAQNDVAARQTTEMLKVMLQQGEAMRCPQCQIVVQKKDGCDWIRCTVCHTEICWVTKGPRWGPGGPGDTSGGCRCRVNGIPCHPSCQNCH

One assay has as its system endogenous OTULIN. The experiment in a line: coimmunoprecipitation of endogenous OTULIN with tagged HOIP/HOIL-1. It counts as cell-based. The following applies: tagged HOIP/HOIL-1 constructs, HEK293T or U2OS/NOD2 cells, western blot. The procedure: Transfected HEK293T or U2OS and NOD2 cells were lysed in the presence of protease and phosphatase inhibitors. Clarified lysates were incubated overnight with anti-V5 and anti-HA-agarose resin. […]
siOTULIN: […], siMM […]
Immunoprecipitation of HOIP-V5 and HA-OTULIN
HEK293T or U2OS/NOD2 cells were transfected as indicated. The cells were lysed in IP buffer buffer (25 mM HEPES pH 7.4, 150 mM KCl, 2 mM MgCl2, 1 mM EGTA, 0.5% (v/v) Triton X-100) supplemented with 5 mM NEM (Sigma-Aldrich), cOmplete protease inhibitor cocktail (Roche) and PhosSTOP
(Roche). After 30 minutes on ice, the lysates were cleared by centrifugation and incubated overnight at 4 °C with anti-V5-agarose resin or anti-HA-agarose resin. The beads were washed four times in ice-cold IP buffer and the precipitated material was eluted with 0.2 M glycine, pH 2.5. […]
As for B1, the “coimmunoprecipitation of endogenous OTULIN (in words)” value (shortened to “coimmunoprecipitation”) is on record as “copurified endogenous OTULIN”.
Turning to B2, the “coimmunoprecipitation” value is listed as “abrogated OTULIN binding”.
For the molecule B3, the “coimmunoprecipitation” value is on record as “OTULIN interaction was increased”.
For B4, the “coimmunoprecipitation” value is “sufficient to coimmunoprecipitate endogenous OTULIN”.
Turning to B5, the “coimmunoprecipitation” value was “OTULIN interacts with HOIP but not HOIL-1”.

Still in this assay, the particulars now being: tagged HOIP/HOIL-1 constructs, HEK293T or U2OS/NOD2 cells, western blot; listed as wild-type HOIP.
Take B1: the “coimmunoprecipitation” value was “coprecipitated OTULIN”.
